Among the data in publication PMC7943195 are fold stimulation of the glycosyltransferase rate (dansyl-lipid II assay) with 0.5 µM LpoP^Ab(sol), Triton X-100-solubilised PBP1B^Ab, fold increase of the final FRET with 2 µM LpoP^Pa(sol), PBP1B^Pa in liposomes and fold increase of the final FRET with 2 µM LpoP^Pa(sol), Triton X-100-solubilised PBP1B^Pa values, retold here.

Assay [1] deals with A. baumannii 19606 PBP1B (Acinetobacter baumannii 19606 (ATCC)).
Assay [2] has as its target P. aeruginosa PBP1B (Pseudomonas aeruginosa).

As for “A. baumannii 19606 LpoP(sol) (natural protein)”, the fold stimulation of the glycosyltransferase rate (dansyl-lipid II assay) with 0.5 µM LpoP^Ab(sol), Triton X-100-solubilised PBP1B^Ab in assay [1] turned out to be 3.3 fold. In assay [2], “P. aeruginosa LpoP(sol) (natural protein)” returned a fold increase of the final FRET with 2 µM LpoP^Pa(sol), PBP1B^Pa in liposomes of 2.2 fold and a fold increase of the final FRET with 2 µM LpoP^Pa(sol), Triton X-100-solubilised PBP1B^Pa of 2.1 fold.
